Patent publication US20230272064A1 (ACROIMMUNE BIOTECH, published 2023)
Values joined by “and” are separate entries in the source; they are usually repeats but may differ in a detail not shown here. Equal values may be shown once.

How the values were obtained:
[1] = target: T1, recombinant human TIGIT extracellular membrane protein with a C-terminal histidine tag (human, UniProt Q495A1 22-141); assay: BLI (Fortebio-OCTET RED96), mAb captured on FAB2G sensor, TIGIT-His monomer as analyte, global fit, monovalent binding
T1 construct: extracellular domain; Bought protein; two different product numbers are printed for it; also called TIGIT-His; TIGIT-his
T1 sequence (looked up): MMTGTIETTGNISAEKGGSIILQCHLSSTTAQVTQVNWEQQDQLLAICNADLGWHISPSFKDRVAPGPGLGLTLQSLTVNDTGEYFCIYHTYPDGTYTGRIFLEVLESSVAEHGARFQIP

[2] = target: T1, recombinant human TIGIT extracellular …; assay: competitive ELISA, TIGIT-His coated, competitor biotin-CD155-Fc
[3] = target: T1, recombinant human TIGIT extracellular …; assay: competitive ELISA, TIGIT-His coated, competitor biotin-CD155-Fc; average of samples #2 and #4
CD3 Fc fusion protein = assay: ELISA, antigen coated at 2 µg/mL, mAb at 1 µg/mL
CTLA4 Fc fusion protein = assay: ELISA, antigen coated at 2 µg/mL, mAb at 1 µg/mL
CTLA4 Fc fusion protein, sequence (P16410 36-161): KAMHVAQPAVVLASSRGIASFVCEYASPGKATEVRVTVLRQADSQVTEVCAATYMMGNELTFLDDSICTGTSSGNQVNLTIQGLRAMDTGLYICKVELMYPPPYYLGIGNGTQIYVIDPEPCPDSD

B7-1 Fc fusion protein [4] = target: T2, B7-1 Fc fusion protein (Homo sapiens (Human), UniProt P33681 35-242); assay: ELISA, antigen coated at 2 µg/mL, mAb at 1 µg/mL
T2 sequence: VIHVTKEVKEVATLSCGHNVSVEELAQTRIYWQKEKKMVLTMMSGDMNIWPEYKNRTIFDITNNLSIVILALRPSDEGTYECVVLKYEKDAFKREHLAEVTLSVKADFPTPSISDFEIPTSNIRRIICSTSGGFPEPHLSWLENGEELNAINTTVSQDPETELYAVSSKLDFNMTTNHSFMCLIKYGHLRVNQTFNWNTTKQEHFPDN

[5] = target: T1, recombinant human TIGIT extracellular …; assay: ELISA, antigen coated at 2 µg/mL, mAb at 1 µg/mL
PD-L2 Fc fusion protein = target: T3, PD-L2 Fc fusion protein; assay: ELISA, antigen coated at 2 µg/mL, mAb at 1 µg/mL
T3 sequence (Q9BQ51 whole entry, species assumed, looked up): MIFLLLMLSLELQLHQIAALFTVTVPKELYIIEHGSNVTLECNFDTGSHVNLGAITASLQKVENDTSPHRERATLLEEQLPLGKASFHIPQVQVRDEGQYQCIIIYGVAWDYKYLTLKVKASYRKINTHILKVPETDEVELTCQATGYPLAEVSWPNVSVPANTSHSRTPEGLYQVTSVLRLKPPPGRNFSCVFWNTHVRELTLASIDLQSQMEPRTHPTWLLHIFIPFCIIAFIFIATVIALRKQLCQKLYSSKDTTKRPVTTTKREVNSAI

PD-1 Fc fusion protein [6] = target: T4, PD-1 Fc fusion protein (Homo sapiens (Human), UniProt Q15116 25-170); assay: ELISA, antigen coated at 2 µg/mL, mAb at 1 µg/mL
T4 sequence (Q15116 25-170 limits assumed): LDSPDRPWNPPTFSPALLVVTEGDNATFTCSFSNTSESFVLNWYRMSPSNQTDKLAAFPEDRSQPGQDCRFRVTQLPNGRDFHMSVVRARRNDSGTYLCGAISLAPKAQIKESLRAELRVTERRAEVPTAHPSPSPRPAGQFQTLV

Sirpa Fc fusion protein = assay: ELISA, antigen coated at 2 µg/mL, mAb at 1 µg/mL
Sirpa Fc fusion protein, sequence (P78324 whole entry, the tested form may be a part): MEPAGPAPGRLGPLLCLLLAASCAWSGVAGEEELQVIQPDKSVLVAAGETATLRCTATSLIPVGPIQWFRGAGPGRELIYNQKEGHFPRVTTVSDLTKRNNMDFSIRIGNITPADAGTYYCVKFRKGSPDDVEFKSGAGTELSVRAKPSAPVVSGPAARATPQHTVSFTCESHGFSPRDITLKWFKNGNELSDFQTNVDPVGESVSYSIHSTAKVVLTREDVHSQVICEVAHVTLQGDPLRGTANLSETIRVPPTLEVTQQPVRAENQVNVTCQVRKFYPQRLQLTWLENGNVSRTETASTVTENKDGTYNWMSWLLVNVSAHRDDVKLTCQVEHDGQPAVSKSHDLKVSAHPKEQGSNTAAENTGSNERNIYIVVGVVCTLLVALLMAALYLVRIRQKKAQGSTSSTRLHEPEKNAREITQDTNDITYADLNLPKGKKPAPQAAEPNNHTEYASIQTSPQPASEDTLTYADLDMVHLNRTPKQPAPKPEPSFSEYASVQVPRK

PD-L1 Fc fusion protein = assay: ELISA, antigen coated at 2 µg/mL, mAb at 1 µg/mL
PD-L1 Fc fusion protein, sequence (Q9NZQ7 whole entry, the tested form may be a part): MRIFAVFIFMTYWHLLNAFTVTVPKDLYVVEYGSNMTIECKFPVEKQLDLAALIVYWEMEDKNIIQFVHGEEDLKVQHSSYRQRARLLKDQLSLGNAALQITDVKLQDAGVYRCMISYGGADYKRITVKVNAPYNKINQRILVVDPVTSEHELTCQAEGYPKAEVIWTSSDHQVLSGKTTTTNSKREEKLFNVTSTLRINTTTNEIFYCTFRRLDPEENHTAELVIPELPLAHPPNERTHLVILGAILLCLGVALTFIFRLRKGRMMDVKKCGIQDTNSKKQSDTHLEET

[7] = target: PV1- (coated antigen of Table 2); assay: ELISA, antigen coated at 2 µg/mL, mAb at 1 µg/mL
BTLA Fc fusion protein [8] = target: T5, BTLA Fc fusion protein (Homo sapiens (Human), UniProt Q7Z6A9 31-157); assay: ELISA, antigen coated at 2 µg/mL, mAb at 1 µg/mL
T5 sequence: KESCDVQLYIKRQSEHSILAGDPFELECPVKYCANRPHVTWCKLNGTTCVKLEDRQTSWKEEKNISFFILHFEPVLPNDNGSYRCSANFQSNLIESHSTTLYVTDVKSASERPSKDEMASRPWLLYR

CD28 Fc fusion protein [9] = target: T6, CD28 Fc fusion protein (Homo sapiens (Human), UniProt P10747 19-152); assay: ELISA, antigen coated at 2 µg/mL, mAb at 1 µg/mL
T6 sequence (P10747 19-152 limits assumed): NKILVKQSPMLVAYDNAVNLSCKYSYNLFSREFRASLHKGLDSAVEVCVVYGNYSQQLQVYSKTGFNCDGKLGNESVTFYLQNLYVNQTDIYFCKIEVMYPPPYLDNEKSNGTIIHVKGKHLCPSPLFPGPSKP

[10] = target: PD1H (PD2) Fc fusion protein; assay: ELISA, antigen coated at 2 µg/mL, mAb at 1 µg/mL
[11] = target: T7, mouse TIGIT on C57/B6 wild-type mouse lymphocytes (mouse, UniProt P86176 29-249); assay: flow cytometry on peripheral blood lymphocytes of a wild-type C57 mouse, 33D2 hybridoma supernatant, FITC rabbit anti-mouse IgG, PE anti-mouse CD3e
T7 construct: whole, on cells
T7 sequence (looked up): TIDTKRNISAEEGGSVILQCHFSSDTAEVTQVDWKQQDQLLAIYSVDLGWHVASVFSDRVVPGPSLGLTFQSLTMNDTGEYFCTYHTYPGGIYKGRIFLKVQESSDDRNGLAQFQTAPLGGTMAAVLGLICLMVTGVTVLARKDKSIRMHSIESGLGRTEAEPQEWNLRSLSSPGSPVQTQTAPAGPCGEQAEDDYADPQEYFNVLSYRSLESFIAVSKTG

B7-1 Fc fusion protein [12] = target: T2, B7-1 Fc fusion protein; assay: ELISA, antigen coated at 2 µg/mL
PD-1 Fc fusion protein [13] = target: T4, PD-1 Fc fusion protein; assay: ELISA, antigen coated at 2 µg/mL
BTLA Fc fusion protein [14] = target: T5, BTLA Fc fusion protein; assay: ELISA, antigen coated at 2 µg/mL
CD28 Fc fusion protein [15] = target: T6, CD28 Fc fusion protein; assay: ELISA, antigen coated at 2 µg/mL

B1: humanized antibody h33D2 (antibody, V domains shown)
VH: QVQLVQSGAEVKKPGASVKVSCKASGYSFTGYYMHWVRQAPGQGLEWMGRVNPNNGDTRYNQKFKGRVTMTRDTSISTAYMELSRLRSDDTVVYYCAREGDYDERFAYWGQGTLVTVSA
VL: DIQLTQSPSFLSASVGDRVTITCKASQDVGSTVAWYQQKPGKAPKLLIYWASTRHTGVPSRFSGSGSGTEFTLTISSLQPEDFATYYCQQYTSFPYTFGGGTKLEIK
notes: IgG4-kappa; human IgG4 heavy chain constant region with S228P in the hinge and human kappa light chain constant region; also called humanized 33D2 mAb; h33D2-light chain and h33D2-heave chain
Kd [1]: 0.843 nM | koff [1]: 0.00023 s⁻¹ | kon [1]: 273000 M⁻¹ s⁻¹

B2: murine anti-human TIGIT monoclonal antibody 33D2 (antibody, V domains shown)
VH: EVQLQQSGPDLVKPGASVKISCKASGYSFTGYYMHWVKQSHGKSLEWIGRVNPNNGDTRYNQKFKGKAILTVDKSSSTAYMELRSLTSEDSAVYYCAREGDYDERFAYWGQGTLVTVSA
VL: DIVMTQSHKFMSTSLGDRVSITCKASQDVGSTVAWYQQKPGQSPKLLIYWASTRHTGVPDRFTGSGSGTDFTLTITNVQSEDLADYFCQQYTSFPYTFGGGTKLEIK
notes: Mouse hybridoma antibody, used as purified protein (Protein G) or as hybridoma supernatant; also called m33D2; 33D2 mAb
IC50 [2]: 0.135 µg/mL and 0.9 nM and 0.125 µg/mL and 0.833 nM | IC50 [3]: 0.13 µg/mL and 0.867 nM | OD at 495 nm (CD3 Fc fusion protein): 0.01 OD | OD at 495 nm (CTLA4 Fc fusion protein): 0.02 OD | OD at 495 nm (B7-1 Fc fusion protein [4]): 0.03 OD | OD at 495 nm [5]: 1.01 OD | OD at 495 nm (PD-L2 Fc fusion protein): 0.04 OD | OD at 495 nm (PD-1 Fc fusion protein [6]): 0.01 OD | OD at 495 nm (Sirpa Fc fusion protein): 0.01 OD | OD at 495 nm (PD-L1 Fc fusion protein): 0 OD | OD at 495 nm [7]: 0.05 OD | OD at 495 nm (BTLA Fc fusion protein [8]): 0.01 OD | OD at 495 nm (CD28 Fc fusion protein [9]): 0.03 OD | OD at 495 nm [10]: 0.01 OD | binding result [11]: no binding | binding result (B7-1 Fc fusion protein [12]): no binding (tested: 1 µg/mL) | binding result (PD-1 Fc fusion protein [13]): no binding (tested: 1 µg/mL) | binding result (BTLA Fc fusion protein [14]): no binding (tested: 1 µg/mL) | binding result (CD28 Fc fusion protein [15]): no binding (tested: 1 µg/mL)
